The text below walks through data of paper PMC2746994 (Biochemistry, 2009).

For assay [1], the target named is Survivin-GB1Borealin f.l. complex (human, UniProt O15392;Q53HL2). The assay can be described thus: ITC.
The target in another assay is Survivin, non-tagged (human, UniProt O15392 1-142). The assay can be described thus: SEC.
Chain of Survivin, non-tagged (O15392 whole entry): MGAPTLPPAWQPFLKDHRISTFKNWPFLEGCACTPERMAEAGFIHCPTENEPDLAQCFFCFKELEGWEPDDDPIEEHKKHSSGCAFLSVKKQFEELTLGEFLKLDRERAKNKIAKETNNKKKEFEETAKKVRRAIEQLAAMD

Chain of Survivin-GB1Borealin f.l. complex (O15392 whole entry, chain 1 of 2): as the sequence (O15392 whole entry) above
Chain of Survivin-GB1Borealin f.l. complex (Q53HL2 whole entry, chain 2 of 2): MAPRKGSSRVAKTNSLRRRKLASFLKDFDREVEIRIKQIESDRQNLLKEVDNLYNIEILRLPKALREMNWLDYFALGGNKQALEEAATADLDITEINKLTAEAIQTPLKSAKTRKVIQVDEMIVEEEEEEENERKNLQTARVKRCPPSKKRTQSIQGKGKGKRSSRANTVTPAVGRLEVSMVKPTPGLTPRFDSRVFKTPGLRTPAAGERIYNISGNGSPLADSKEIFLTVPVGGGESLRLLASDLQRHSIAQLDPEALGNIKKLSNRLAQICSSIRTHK

B1: INCENP 1-69, His6-tagged (domain or fragment)
chain: MGTTAPGPIHLLELCDQKLMEFLCNMDNKDLVWLEEIQEEAERMFTREFSKEPELMPKTPSQKNRRKKR
Consider B1, for which, in assay [1], binding was characterised by a dissociation constant (Kd) of 0.027 µM and the “stoichiometry N” value was roughly 0.75.

B2: GB1Borealin 13-92 (domain or fragment)
chain: TNSLRRRKLASFLKDFDREVEIRIKQIESDRQNLLKEVDNLYNIEILRLPKALREMNWLDYFALGGNKQALEEAATADLD
As to B2, the binding result in the assay with Survivin, non-tagged is “binds”.
